In US5558865:

What was measured:
[1] = molecular target: native HIV-1MN gp120 (HIV-1 strain MN) (UniProt P05877)
[2] = molecular target: native HIV-1IIIB gp120 (HIV-1 strain IIIB) (UniProt P04578)
[3] = molecular target: native HIV-1MN gp120 (HIV-1 strain MN) (UniProt P05877); remark: listed apart in the source
[4] = molecular target: native HIV-1IIIB gp120 (HIV-1 strain IIIB) (UniProt P04578); remark: listed apart in the source
[5] = molecular target: gp120 of HIV-1 strain RF (HIV-1 strain RF)
[6] = molecular target: peptide of amino acids 302-316 of HIV-1MN gp120 (HIV-1 strain MN); assay: peptide ELISA, 500 ng MIgG
[7] = molecular target: peptide of amino acids 322-336 of HIV-1MN gp120 (HIV-1 strain MN); assay: peptide ELISA, 500 ng MIgG
[8] = molecular target: peptide of amino acids 312-326 of HIV-1MN gp120 (HIV-1 strain MN); assay: peptide ELISA, 500 ng MIgG

Chain of monoclonal antibody NM-01 (VH): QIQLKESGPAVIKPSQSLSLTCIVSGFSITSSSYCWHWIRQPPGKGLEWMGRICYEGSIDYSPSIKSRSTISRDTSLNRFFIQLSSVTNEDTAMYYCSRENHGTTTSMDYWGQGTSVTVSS
Chain of monoclonal antibody NM-01 (VL): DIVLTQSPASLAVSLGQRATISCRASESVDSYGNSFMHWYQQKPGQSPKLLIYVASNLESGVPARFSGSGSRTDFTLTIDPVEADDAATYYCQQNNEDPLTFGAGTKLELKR

Substance	ID50, MT-2 assay (cell viability by MTT), live MN virus [1] [µg/mL]	ID50, MT-2 assay (cell viability by MTT), live IIIB virus [2] [µg/mL]	ID50, syncytium formation of MN-infected H9 cells with C8166 cells [3] [µg/mL]	ID50, syncytium formation of IIIB-infected H9 cells with C8166 cells [4] [µg/mL]	ID50, syncytium formation of RF-infected cells [5] [µg/mL]	optical density at 650 nm [6] [OD 650 nm]	optical density at 650 nm [7] [OD 650 nm]	optical density at 650 nm [8] [OD 650 nm]
monoclonal antibody NM-01	2	0.1	2	3	4			
mouse IgG (polyclonal serum or antibody)						0.049	0.042	0.043
